Source: publication PMC10432850, “NME3 binds to phosphatidic acid and mediates PLD6-induced mitochondrial tethering” (The Journal of Cell Biology, 2023)

Biological target: the molecule itself
Experiment: cross-linking; 4 uM purified protein cross-linked with glutaraldehyde, detected by Western blotting

B1: NME3^ΔN-His (domain or fragment, human, UniProt Q13232 18-169, looked up)
chain: TGAHERTFLAVKPDGVQRRLVGEIVRRFERKGFKLVALKLVQASEELLREHYAELRERPFYGRLVKYMASGPVVAMVWQGLDVVRTSRALIGATNPADAPPGTIRGDFCIEVGKNLIHGSDSVESARREIALWFRADELLCWEDSAGHWLYE
notes: NME3 (nucleoside diphosphate kinase 3), human, lacking the N-terminal 17 amino acids (N17); also called N17 truncated NME3; source: E. coli BL21, purified (HisPur Ni-NTA resin, dialysed); not shown: His, C-terminal, kept
  stoichiometry N: 6

B2: NME3^WT-His (natural protein, human, UniProt Q13232 1-169, looked up)
chain: MICLVLTIFANLFPAACTGAHERTFLAVKPDGVQRRLVGEIVRRFERKGFKLVALKLVQASEELLREHYAELRERPFYGRLVKYMASGPVVAMVWQGLDVVRTSRALIGATNPADAPPGTIRGDFCIEVGKNLIHGSDSVESARREIALWFRADELLCWEDSAGHWLYE
notes: NME3 (nucleoside diphosphate kinase 3), human, wild type; also called NME3-His; source: E. coli BL21, purified (HisPur Ni-NTA resin, dialysed); not shown: His, C-terminal, kept
  binding result: binds
